Source: publication PMC10333884, “Large‐scale phosphomimetic screening identifies phospho‐modulated motif‐based protein interactions” (Molecular Systems Biology, 2023)

Biological target: GABARAPL2 (human) (UniProt P60520)
Test: fluorescence polarisation
Conditions: not given

Chain of GABARAPL2 (human) (P60520 whole entry): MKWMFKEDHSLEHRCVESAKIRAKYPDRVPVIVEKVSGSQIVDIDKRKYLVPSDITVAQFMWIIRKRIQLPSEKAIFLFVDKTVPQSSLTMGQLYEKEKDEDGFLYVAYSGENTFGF
Chain of DAXX_(606–616), phosphorylated (pS) (Q9UER7 whole entry, looked up, tested part not stated): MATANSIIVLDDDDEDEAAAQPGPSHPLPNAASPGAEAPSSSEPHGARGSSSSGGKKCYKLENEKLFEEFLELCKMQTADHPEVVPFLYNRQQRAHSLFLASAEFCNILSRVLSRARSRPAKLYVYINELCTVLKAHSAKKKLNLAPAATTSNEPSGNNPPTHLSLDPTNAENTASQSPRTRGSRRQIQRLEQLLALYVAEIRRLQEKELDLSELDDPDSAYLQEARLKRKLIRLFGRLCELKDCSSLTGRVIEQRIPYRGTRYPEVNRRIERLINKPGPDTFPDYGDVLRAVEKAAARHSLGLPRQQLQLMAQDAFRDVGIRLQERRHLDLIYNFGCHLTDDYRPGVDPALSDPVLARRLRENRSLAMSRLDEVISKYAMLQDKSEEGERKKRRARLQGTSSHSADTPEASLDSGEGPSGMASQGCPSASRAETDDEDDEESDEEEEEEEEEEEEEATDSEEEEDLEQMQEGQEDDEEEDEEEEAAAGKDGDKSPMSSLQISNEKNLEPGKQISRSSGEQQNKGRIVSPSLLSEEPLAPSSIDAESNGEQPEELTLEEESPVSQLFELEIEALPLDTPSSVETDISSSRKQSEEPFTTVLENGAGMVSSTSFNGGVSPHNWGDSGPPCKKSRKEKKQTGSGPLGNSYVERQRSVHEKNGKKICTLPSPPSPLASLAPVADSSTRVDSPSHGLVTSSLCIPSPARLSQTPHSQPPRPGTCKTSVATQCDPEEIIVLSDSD
Chain of DAXX_(606–616), wild‐type (Q9UER7 whole entry, looked up, tested part not stated): as above
Chain of DAXX_(606–616), phosphomimetic (E) (Q9UER7 whole entry, looked up, tested part not stated): as above

Row | Kd | Substance
1 | 150 µM | DLGAP4_(907–922), phosphorylated (pS) (from UniProt Q9Y2H0 907-922) (peptide)
2 | 174 µM | DLGAP4_(907–922), wild‐type (from UniProt Q9Y2H0 907-922) (peptide)

Further lines, the substance ahead of its results:

Row | Substance | Kd
3 | ATG4C_(444–458), phosphorylated (pS) (from UniProt Q96DT6 444-458) (peptide) | 0.1 µM
4 | DLGAP4_(907–922), phosphomimetic (E) (from UniProt Q9Y2H0 907-922) (peptide) | 260 µM

Biological target: KPNA4 ARM ARM domain (UniProt O00629)
Test: FP displacement, major-pocket FITC probe
Conditions: reference: unphosphorylated peptide; sites S116

Row | KD | Substance
5 | stronger; reference 8.8 ± 0.2 | CDC25A 114-125 (from UniProt P30304) pS116 peptide

Same assay, conditions: reference: unphosphorylated peptide; sites T124

Row | KD | Substance
6 | weaker; reference 0.15 ± 0.01 | RANBP3 114-129 (from UniProt Q9H6Z4) pT124 peptide (p+5)

Biological target: AP2 μ2 (human)
Test: fluorescence polarisation; displacement of a FITC-labelled probe peptide (5 nM in the measurement) from the protein domain (1-2 fold over the probe's KD) by a dilution series of unlabelled peptide; room temperature; 50 mM sodium phosphate pH 7.4; KD calculated from the displacement curve; for KPNA4 ARM one probe for each pocket
Conditions: not given

Row | Kd | Substance
7 | 0.49 µM | BAIAPL1_(392–407), phosphomimetic (E) (from UniProt Q9UHR4 392-407) (peptide)
8 | 0.93 µM | BAIAPL1_(392–407), phosphorylated (pS) (from UniProt Q9UHR4 392-407) (peptide)
9 | 1.29 µM | BAIAPL1_(392–407), wild‐type (from UniProt Q9UHR4 392-407) (peptide)
10 | 2.05 µM | PCBP1_(179–194), phosphomimetic (E) (from UniProt Q15365 179-194) (peptide)
11 | 0.67 µM | PCBP1_(179–194), phosphorylated (pS) (from UniProt Q15365 179-194) (peptide)
12 | 3.7 µM | PCBP1_(179–194), wild‐type (from UniProt Q15365 179-194) (peptide)

Biological target: Clathrin N-terminal domain (NTD) (human) (UniProt Q00610)
Sequence (Q00610 1-364): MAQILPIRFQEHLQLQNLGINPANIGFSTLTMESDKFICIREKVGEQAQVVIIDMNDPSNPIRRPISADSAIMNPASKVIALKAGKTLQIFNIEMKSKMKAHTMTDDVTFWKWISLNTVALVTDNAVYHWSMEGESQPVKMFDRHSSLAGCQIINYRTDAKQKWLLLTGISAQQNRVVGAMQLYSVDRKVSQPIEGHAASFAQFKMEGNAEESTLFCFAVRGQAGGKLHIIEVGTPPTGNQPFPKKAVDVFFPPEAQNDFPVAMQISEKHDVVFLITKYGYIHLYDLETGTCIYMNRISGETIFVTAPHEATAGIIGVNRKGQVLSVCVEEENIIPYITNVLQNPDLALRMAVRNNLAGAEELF
Test: as above
Conditions: not given

Row | Kd | Substance
13 | 100 µM | GTSE1_(692–707) peptide, unphosphorylated
14 | < 3 µM | pS839 HURP_(826–846) peptide (from UniProt Q15398 826-846)

Biological target: GGA1 VHS (human) (UniProt Q9UJY5)
Sequence (Q9UJY5 17-147): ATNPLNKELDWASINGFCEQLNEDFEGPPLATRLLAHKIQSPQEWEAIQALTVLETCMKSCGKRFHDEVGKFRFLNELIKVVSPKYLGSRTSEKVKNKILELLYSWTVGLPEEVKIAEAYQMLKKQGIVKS
Test: as above
Conditions: not given

Row | Kd | Substance
15 | 1000 µM | RNF11_(6–21), phosphomimetic (E) (from UniProt Q9Y3C5 6-21) (peptide)
16 | 31 µM | RNF11_(6–21), phosphorylated (pS) (from UniProt Q9Y3C5 6-21) (peptide)

Second part, the substance before the results:

Row | Substance | Kd
17 | JUN_(59–73), phosphorylated (pS) (from UniProt P05412 59-73) (peptide) | 1900 µM
18 | JUN_(59–73), wild‐type (from UniProt P05412 59-73) (peptide) | 470 µM
19 | RNF11_(6–21), wild‐type (from UniProt Q9Y3C5 6-21) (peptide) | 420 µM

Biological target: KPNA4 ARM (human)
Test: as above
Conditions: not given

Row | KD, major pocket | KD, minor pocket | Substance
20 | 0.75 µM | 2.3 µM | CDC25A_(114–125), phosphomimetic (E) (from UniProt P30304 114-125) (peptide)
21 | 0.15 µM | 68 µM | RANBP3_(114–129), wild‐type (from UniProt Q9H6Z4 114-129) (peptide)
22 | 50 µM | 248 µM | SQSTM1_(258–272), phosphorylated (pS) (from UniProt Q13501 258-272) (peptide)
23 | 0.24 µM | 14 µM | SQSTM1_(258–272), wild‐type (from UniProt Q13501 258-272) (peptide)

The remaining lines, values behind:

Row | Substance | KD, major pocket | KD, minor pocket
24 | CDC25A_(114–125), wild‐type (from UniProt P30304 114-125) (peptide) | 8.8 µM | 0.2 µM
25 | RANBP3_(114–129), phosphomimetic (E) at p + 5 (from UniProt Q9H6Z4 114-129) (peptide) | 0.8 µM | 61 µM
26 | RANBP3_(114–129), phosphomimetic (E) at p + 6 (from UniProt Q9H6Z4 114-129) (peptide) | 0.14 µM | 80 µM
27 | RANBP3_(114–129), phosphorylated at p + 5 (from UniProt Q9H6Z4 114-129) (peptide) | 1.13 µM | 167 µM
28 | RANBP3_(114–129), phosphorylated at p + 6 (from UniProt Q9H6Z4 114-129) (peptide) | 0.22 µM | 20 µM
29 | SQSTM1_(258–272), phosphomimetic (E) (from UniProt Q13501 258-272) (peptide) | 5.3 µM | 41 µM
30 | pS116 CDC25A_(114–125) (from UniProt P30304 114-125) (peptide) | 0.63 µM | 2.8 µM

Biological target: MAP1LC3B (human) (UniProt Q9GZQ8)
Test: as above
Conditions: not given

Row | Kd | Substance
31 | 1.9 µM | ATG4C_(444–458), phosphorylated (pS) (from UniProt Q96DT6 444-458) (peptide)
32 | 61 µM | TPD52L2_(91–106), phosphorylated (pS) (from UniProt O43399 91-106) (peptide)
33 | 760 µM | TPD52L2_(91–106), wild‐type (from UniProt O43399 91-106) (peptide)

Biological target: PDCD6IP Alix V domain (human)
Test: as above
Conditions: not given

Row | Kd | Substance
34 | 13 µM | FOXK1_(212–227), phosphomimetic (E) (from UniProt P85037 212-227) (peptide)
35 | 13 µM | FOXK1_(212–227), phosphorylated (pS) (from UniProt P85037 212-227) (peptide)
36 | 25 µM | FOXK1_(212–227), wild‐type (from UniProt P85037 212-227) (peptide)
37 | 88 µM | OTUD5_(507–522), phosphomimetic (E) (from UniProt Q96G74 507-522) (peptide)
38 | 116 µM | OTUD5_(507–522), phosphorylated (pS) (from UniProt Q96G74 507-522) (peptide)
39 | 68 µM | OTUD5_(507–522), wild‐type (from UniProt Q96G74 507-522) (peptide)

Biological target: RANBP2 RanBD4 (human)
Test: as above
Conditions: not given

Row | Kd | Substance
40 | 167 µM | DHX38_(260–275), phosphorylated (pS) (from UniProt Q92620 260-275) (peptide)
41 | 1500 µM | DHX38_(260–275), wild‐type (from UniProt Q92620 260-275) (peptide)
42 | 1080 µM | INTS6_(145–159), phosphomimetic (E) (from UniProt Q9UL03 145-159) (peptide)
43 | 733 µM | INTS6_(145–159), phosphorylated (pS) (from UniProt Q9UL03 145-159) (peptide)
44 | 334 µM | INTS6_(145–159), wild‐type (from UniProt Q9UL03 145-159) (peptide)

Biological target: SNX27 PDZ (human) (UniProt Q96L92)
Test: as above
Conditions: not given

Row | Kd | Substance
45 | 680 µM | CDC25C_(30–44), phosphomimetic (E) (from UniProt P30307 30-44) (peptide)
46 | 111 µM | CDC25C_(30–44), wild‐type (from UniProt P30307 30-44) (peptide)
47 | 96 µM | DAXX_(606–616), phosphorylated (pS) (from UniProt Q9UER7 606-616) (peptide)

More lines, now with the values behind:

Row | Substance | Kd
48 | CDC25C_(30–44), phosphorylated (pS) (from UniProt P30307 30-44) (peptide) | 395 µM
49 | DAXX_(606–616), phosphomimetic (E) (from UniProt Q9UER7 606-616) (peptide) | 23 µM
50 | DAXX_(606–616), wild‐type (from UniProt Q9UER7 606-616) (peptide) | 300 µM

Biological target: TSG101 UEV (human) (UniProt Q99816)
Sequence (Q99816 2-145): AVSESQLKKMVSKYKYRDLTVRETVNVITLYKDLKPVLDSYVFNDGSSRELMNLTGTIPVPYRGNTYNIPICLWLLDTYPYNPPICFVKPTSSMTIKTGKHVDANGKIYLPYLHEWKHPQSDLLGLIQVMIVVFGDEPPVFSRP
Test: as above
Conditions: not given

Row | Kd | Substance
51 | 115 µM | GJA1_(269–283), phosphomimetic (E) (from UniProt P17302 269-283) (peptide)
52 | 232 µM | GJA1_(269–283), wild‐type (from UniProt P17302 269-283) (peptide)
53 | 16 µM | PDCD6IP_(711–725), wild‐type (from UniProt Q8WUM4 711-725) (peptide)

The next lines start with the substance.

Row | Substance | Kd
54 | GJA1_(269–283), phosphorylated (pS) (from UniProt P17302 269-283) (peptide) | 209 µM
55 | PIP4P2_(17–32), phosphomimetic (E) (from UniProt Q8N4L2 17-32) (peptide) | 18 µM
56 | PIP4P2_(17–32), phosphorylated (pS) (from UniProt Q8N4L2 17-32) (peptide) | 16 µM
57 | PIP4P2_(17–32), wild‐type (from UniProt Q8N4L2 17-32) (peptide) | 14 µM
